{
  "source": "paper PMC9655642",
  "system": "alpha-CTD (RNA polymerase alpha subunit C-terminal domain) (Bacillus licheniformis B1391)",
  "experiment": "fluorescence polarization",
  "settings": "FP: 25 mM Tris-HCl, 3 mM NaCl, 3 mM MgCl2, 0.1 mM DTT, room temp 20 min, 100 nM probe, 30 ug protein in 100 uL; EMSA: 10 nM probe, 25 C 20 min; footprinting: …",
  "data": [
    {"substance": "PtrxA-UP5-5D (five distal subsite repeats)", "values": [
      {"measurement": "binding signal (% polarization change (DPC))", "result": 35}
    ]},
    {"substance": "PtrxA-UP5-5P (five proximal subsite repeats)", "values": [
      {"measurement": "binding signal (% polarization change (DPC))", "result": 52}
    ]}
  ]
}
